Measurements from the supplement of paper PMC10567573.

B1: ESRRA (parent)
chain: LGVAQRSLPLQDELAFAEDLVLDE

Variants of: B1
Assay: protein stability index of a GFP-peptide fusion (GPS, HEK-293T) (PSI 1-6); higher = more stable
Settings: c terminus: a fixed tail appended
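Also: lentivirally expressed fusions sorted by FACS into six bins by GFP to DsRed ratio, PSI derived from sequencing read proportions per bin multiplied by bin number.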

**Q.** Which protein stability index does the source give for LWVAQRSLPLQDELAFAEDLVLDE [G2W] here?
**A.** 1.79

**Q.** For LIVAQRSLPLQDELAFAEDLVLDE [G2I], which protein stability index is on record?
**A.** 1.89

**Q.** Which protein stability index does the source give for LQVAQRSLPLQDELAFAEDLVLDE [G2Q] here?
**A.** 2.98

**Q.** For LPVAQRSLPLQDELAFAEDLVLDE [G2P], which protein stability index is on record?
**A.** 3.92

**Q.** Which protein stability index does the source give for LTVAQRSLPLQDELAFAEDLVLDE [G2T] here?
**A.** 2.91

**Q.** For LDVAQRSLPLQDELAFAEDLVLDE [G2D], which protein stability index is on record?
**A.** 3.02

**Q.** Which protein stability index does the source give for LFVAQRSLPLQDELAFAEDLVLDE [G2F] here?
**A.** 1.87

**Q.** For LKVAQRSLPLQDELAFAEDLVLDE [G2K], which protein stability index is on record?
**A.** 1.98

**Q.** With LCVAQRSLPLQDELAFAEDLVLDE [G2C] as the variant, how does the protein stability index read?
**A.** 2.69

**Q.** With LVVAQRSLPLQDELAFAEDLVLDE [G2V] as the variant, how does the protein stability index read?
**A.** 2.34

**Q.** With LLVAQRSLPLQDELAFAEDLVLDE [G2L] as the variant, how does the protein stability index read?
**A.** 2.21

**Q.** Which protein stability index does the source give for LYVAQRSLPLQDELAFAEDLVLDE [G2Y] here?
**A.** 1.89

**Q.** Which protein stability index does the source give for LEVAQRSLPLQDELAFAEDLVLDE [G2E] here?
**A.** 3.17

**Q.** For LRVAQRSLPLQDELAFAEDLVLDE [G2R], which protein stability index is on record?
**A.** 1.93

**Q.** For LMVAQRSLPLQDELAFAEDLVLDE [G2M], which protein stability index is on record?
**A.** 2.36

**Q.** With LAVAQRSLPLQDELAFAEDLVLDE [G2A] as the variant, how does the protein stability index read?
**A.** 3.14

**Q.** Which protein stability index does the source give for LNVAQRSLPLQDELAFAEDLVLDE [G2N] here?
**A.** 3.08

**Q.** Which protein stability index does the source give for LSVAQRSLPLQDELAFAEDLVLDE [G2S] here?
**A.** 2.63

**Q.** For LHVAQRSLPLQDELAFAEDLVLDE [G2H], which protein stability index is on record?
**A.** 2.78

**Q.** With LGVFQRSLPLQDELAFAEDLVLDE [A4F] as the variant, how does the protein stability index read?
**A.** 2.23

**Q.** For LGVKQRSLPLQDELAFAEDLVLDE [A4K], which protein stability index is on record?
**A.** 2.58

**Q.** With LGVPQRSLPLQDELAFAEDLVLDE [A4P] as the variant, how does the protein stability index read?
**A.** 3.1

**Q.** With LGVGQRSLPLQDELAFAEDLVLDE [A4G] as the variant, how does the protein stability index read?
**A.** 2.41

**Q.** For LGVDQRSLPLQDELAFAEDLVLDE [A4D], which protein stability index is on record?
**A.** 2.84

**Q.** For LGVSQRSLPLQDELAFAEDLVLDE [A4S], which protein stability index is on record?
**A.** 2.81

**Q.** For LGVVQRSLPLQDELAFAEDLVLDE [A4V], which protein stability index is on record?
**A.** 2.39

**Q.** With LGVEQRSLPLQDELAFAEDLVLDE [A4E] as the variant, how does the protein stability index read?
**A.** 3.45

**Q.** With LGVWQRSLPLQDELAFAEDLVLDE [A4W] as the variant, how does the protein stability index read?
**A.** 2.3

**Q.** With LGVMQRSLPLQDELAFAEDLVLDE [A4M] as the variant, how does the protein stability index read?
**A.** 2.58

**Q.** Which protein stability index does the source give for LGVNQRSLPLQDELAFAEDLVLDE [A4N] here?
**A.** 2.94

**Q.** With LGVCQRSLPLQDELAFAEDLVLDE [A4C] as the variant, how does the protein stability index read?
**A.** 2.02

**Q.** With LGVQQRSLPLQDELAFAEDLVLDE [A4Q] as the variant, how does the protein stability index read?
**A.** 3.33

**Q.** Which protein stability index does the source give for LGVTQRSLPLQDELAFAEDLVLDE [A4T] here?
**A.** 2.43

**Q.** For LGVYQRSLPLQDELAFAEDLVLDE [A4Y], which protein stability index is on record?
**A.** 2.1

**Q.** With LGVLQRSLPLQDELAFAEDLVLDE [A4L] as the variant, how does the protein stability index read?
**A.** 2.42

**Q.** For LGVRQRSLPLQDELAFAEDLVLDE [A4R], which protein stability index is on record?
**A.** 1.86

**Q.** Which protein stability index does the source give for LGVHQRSLPLQDELAFAEDLVLDE [A4H] here?
**A.** 2.21

**Q.** Which protein stability index does the source give for LGVIQRSLPLQDELAFAEDLVLDE [A4I] here?
**A.** 1.59

**Q.** Which protein stability index does the source give for LGVAQRSLYLQDELAFAEDLVLDE [P9Y] here?
**A.** 3.66

**Q.** Which protein stability index does the source give for LGVAQRSLLLQDELAFAEDLVLDE [P9L] here?
**A.** 3.89

**Q.** Which protein stability index does the source give for LGVAQRSLILQDELAFAEDLVLDE [P9I] here?
**A.** 2.85

**Q.** With LGVAQRSLHLQDELAFAEDLVLDE [P9H] as the variant, how does the protein stability index read?
**A.** 3.69

**Q.** With LGVAQRSLDLQDELAFAEDLVLDE [P9D] as the variant, how does the protein stability index read?
**A.** 3.17

**Q.** With LGVAQRSLTLQDELAFAEDLVLDE [P9T] as the variant, how does the protein stability index read?
**A.** 4.04

**Q.** With LGVAQRSLWLQDELAFAEDLVLDE [P9W] as the variant, how does the protein stability index read?
**A.** 3.21

**Q.** For LGVAQRSLALQDELAFAEDLVLDE [P9A], which protein stability index is on record?
**A.** 4.37

**Q.** With LGVAQRSLKLQDELAFAEDLVLDE [P9K] as the variant, how does the protein stability index read?
**A.** 3.07

**Q.** Which protein stability index does the source give for LGVAQRSLRLQDELAFAEDLVLDE [P9R] here?
**A.** 3.95

**Q.** With LGVAQRSLMLQDELAFAEDLVLDE [P9M] as the variant, how does the protein stability index read?
**A.** 3.53

**Q.** For LGVAQRSLFLQDELAFAEDLVLDE [P9F], which protein stability index is on record?
**A.** 3.54

**Q.** With LGVAQRSLGLQDELAFAEDLVLDE [P9G] as the variant, how does the protein stability index read?
**A.** 2.64

**Q.** With LGVAQRSLCLQDELAFAEDLVLDE [P9C] as the variant, how does the protein stability index read?
**A.** 4.38

**Q.** With LGVAQRSLSLQDELAFAEDLVLDE [P9S] as the variant, how does the protein stability index read?
**A.** 3.49

**Q.** Which protein stability index does the source give for LGVAQRSLVLQDELAFAEDLVLDE [P9V] here?
**A.** 4.05

**Q.** With LGVAQRSLNLQDELAFAEDLVLDE [P9N] as the variant, how does the protein stability index read?
**A.** 4.18

**Q.** For LGVAQRSLELQDELAFAEDLVLDE [P9E], which protein stability index is on record?
**A.** 3.45

**Q.** For LGVAQRSLQLQDELAFAEDLVLDE [P9Q], which protein stability index is on record?
**A.** 4.66

**Q.** With LGVAQRSDPLQDELAFAEDLVLDE [L8D] as the variant, how does the protein stability index read?
**A.** 4.91

**Q.** Which protein stability index does the source give for LGVAQRSGPLQDELAFAEDLVLDE [L8G] here?
**A.** 3.74

**Q.** Which protein stability index does the source give for LGVAQRSYPLQDELAFAEDLVLDE [L8Y] here?
**A.** 1.86

**Q.** With LGVAQRSIPLQDELAFAEDLVLDE [L8I] as the variant, how does the protein stability index read?
**A.** 3.03

**Q.** Which protein stability index does the source give for LGVAQRSCPLQDELAFAEDLVLDE [L8C] here?
**A.** 3.2

**Q.** Which protein stability index does the source give for LGVAQRSVPLQDELAFAEDLVLDE [L8V] here?
**A.** 3.53

**Q.** For LGVAQRSPPLQDELAFAEDLVLDE [L8P], which protein stability index is on record?
**A.** 3.71

**Q.** For LGVAQRSWPLQDELAFAEDLVLDE [L8W], which protein stability index is on record?
**A.** 3.63

**Q.** With LGVAQRSSPLQDELAFAEDLVLDE [L8S] as the variant, how does the protein stability index read?
**A.** 2.83

**Q.** For LGVAQRSFPLQDELAFAEDLVLDE [L8F], which protein stability index is on record?
**A.** 2.33

**Q.** For LGVAQRSEPLQDELAFAEDLVLDE [L8E], which protein stability index is on record?
**A.** 5

**Q.** With LGVAQRSQPLQDELAFAEDLVLDE [L8Q] as the variant, how does the protein stability index read?
**A.** 3.72

**Q.** With LGVAQRSRPLQDELAFAEDLVLDE [L8R] as the variant, how does the protein stability index read?
**A.** 2.02

**Q.** With LGVAQRSKPLQDELAFAEDLVLDE [L8K] as the variant, how does the protein stability index read?
**A.** 4.38

**Q.** Which protein stability index does the source give for LGVAQRSHPLQDELAFAEDLVLDE [L8H] here?
**A.** 2.88

**Q.** With LGVAQRSTPLQDELAFAEDLVLDE [L8T] as the variant, how does the protein stability index read?
**A.** 3.24

**Q.** With LGVAQRSMPLQDELAFAEDLVLDE [L8M] as the variant, how does the protein stability index read?
**A.** 3.25

**Q.** For LGVAQRSAPLQDELAFAEDLVLDE [L8A], which protein stability index is on record?
**A.** 3.17

**Q.** For LGVAQRSNPLQDELAFAEDLVLDE [L8N], which protein stability index is on record?
**A.** 2.91

**Q.** Which protein stability index does the source give for LGVAQRMLPLQDELAFAEDLVLDE [S7M] here?
**A.** 2.84

**Q.** For LGVAQRILPLQDELAFAEDLVLDE [S7I], which protein stability index is on record?
**A.** 2.98

**Q.** With LGVAQRCLPLQDELAFAEDLVLDE [S7C] as the variant, how does the protein stability index read?
**A.** 2.4

**Q.** Which protein stability index does the source give for LGVAQRYLPLQDELAFAEDLVLDE [S7Y] here?
**A.** 2.37

**Q.** Which protein stability index does the source give for LGVAQRALPLQDELAFAEDLVLDE [S7A] here?
**A.** 3.38

**Q.** Which protein stability index does the source give for LGVAQRKLPLQDELAFAEDLVLDE [S7K] here?
**A.** 3.13

**Q.** For LGVAQRGLPLQDELAFAEDLVLDE [S7G], which protein stability index is on record?
**A.** 2.79

**Q.** For LGVAQRDLPLQDELAFAEDLVLDE [S7D], which protein stability index is on record?
**A.** 3.25

**Q.** For LGVAQRPLPLQDELAFAEDLVLDE [S7P], which protein stability index is on record?
**A.** 3.14

**Q.** For LGVAQRFLPLQDELAFAEDLVLDE [S7F], which protein stability index is on record?
**A.** 2.32

**Q.** For LGVAQRNLPLQDELAFAEDLVLDE [S7N], which protein stability index is on record?
**A.** 2.46

**Q.** For LGVAQRLLPLQDELAFAEDLVLDE [S7L], which protein stability index is on record?
**A.** 2.58

**Q.** For LGVAQRTLPLQDELAFAEDLVLDE [S7T], which protein stability index is on record?
**A.** 3.34

**Q.** With LGVAQRWLPLQDELAFAEDLVLDE [S7W] as the variant, how does the protein stability index read?
**A.** 1.78

**Q.** For LGVAQRVLPLQDELAFAEDLVLDE [S7V], which protein stability index is on record?
**A.** 2.94

**Q.** With LGVAQRRLPLQDELAFAEDLVLDE [S7R] as the variant, how does the protein stability index read?
**A.** 2.52

**Q.** For LGVAQRQLPLQDELAFAEDLVLDE [S7Q], which protein stability index is on record?
**A.** 3.18

**Q.** Which protein stability index does the source give for LGVAQRHLPLQDELAFAEDLVLDE [S7H] here?
**A.** 2.29
